Reference: patent US20240336672A1

Key:
Details in all cases: remark: other sources report otherwise
[1] = molecular target: SARS-CoV-2 RBD domain, Wuhan (SARS-CoV-2); experiment: competition ELISA vs bio-Cv2.3235
[2] = molecular target: SARS-CoV-2 RBD domain, Wuhan (SARS-CoV-2); experiment: SPR (Biacore), antibody immobilised
[3] = molecular target: SARS-CoV-2 RBD domain, Wuhan (SARS-CoV-2); experiment: ELISA; design: unit not given beside the values
[4] = molecular target: SARS-CoV-2 RBD domain, Wuhan (SARS-CoV-2); experiment: RBD-ACE2 competition ELISA; design: unit not given beside the values
[5] = molecular target: CoV-MERS Spike ectodomain (MERS-CoV), K9N5Q8; experiment: ELISA, coated antigen
[6] = molecular target: SARS-CoV-1 Spike ectodomain (SARS-CoV-1), P59594; experiment: ELISA, coated antigen
[7] = molecular target: SARS-CoV-2 RBD domain, Wuhan (SARS-CoV-2); experiment: ELISA, coated antigen
[8] = molecular target: SARS-CoV-2 RBD domain, Wuhan (SARS-CoV-2); experiment: competition ELISA vs bio-Cv2.1353
[9] = molecular target: T1, SARS-CoV-2 Spike (S) protein on cells (S-Flow assay) (SARS-CoV-2), P0DTC2; experiment: flow cytometry (Mock 2.5)
[10] = molecular target: SARS-CoV-2 RBD domain, Wuhan (SARS-CoV-2); experiment: SPR (Biacore), antibody coupled to CM5 chip, viral protein as analyte
[11] = molecular target: SARS-CoV-2 RBD domain, Wuhan (SARS-CoV-2); experiment: competition ELISA vs bio-Cv2.1169
[12] = molecular target: SARS-CoV-2 RBD domain, Wuhan (SARS-CoV-2); experiment: RBD/ACE2 blocking ELISA
[13] = molecular target: SARS-CoV-2 RBD domain, Wuhan (SARS-CoV-2); experiment: competition ELISA vs bio-Cv2.3194
[14] = molecular target: T1, SARS-CoV-2 Spike (S) protein on cells …; experiment: S-Flow flow cytometry, spike-expressing cells
[15] = molecular target: T1, SARS-CoV-2 Spike (S) protein on cells …; experiment: flow cytometry, transfected cells
[16] = molecular target: SARS-CoV-2 RBD domain, Wuhan (SARS-CoV-2); experiment: ELISA
[17] = molecular target: SARS-CoV-2 RBD domain, Wuhan (SARS-CoV-2); experiment: competition ELISA vs bio-Cv2.5213
[18] = molecular target: SARS-CoV-2 RBD domain, Wuhan (SARS-CoV-2); experiment: SPR (Biacore), IgG immobilized, viral protein as analyte
[19] = molecular target: SARS-CoV-2 RBD domain, Wuhan (SARS-CoV-2); experiment: ELISA; design: unit not given beside the values; remark: listed apart in the source
[20] = molecular target: SARS-CoV-2 RBD domain, Wuhan (SARS-CoV-2); experiment: RBD-ACE2 competition ELISA; design: unit not given beside the values; remark: listed apart in the source
[21] = molecular target: SARS-CoV-2 RBD domain, Wuhan (SARS-CoV-2); experiment: competition ELISA, biotinylated RBD to immobilized ACE2 ectodomain
[22] = molecular target: SARS-CoV-2 RBD domain, Wuhan (SARS-CoV-2); experiment: ELISA; design: unit not given beside the values; remark: listed apart in the source

B1: Cv2.3194 (recombinant human IgG1) (antibody)
heavy: EVQLVESGGGLIQPGGSLRLSCAASGITVTSNYMSWVRQAPGKGLEWVSVIYPGGSTFYADSVKGRFTISRDNSKNTLYLQMNSLRAEDTAVYYCARDLVVYGMDVWGQGTTVTVSSASTKGPSVFPLAPSSKSTSGGTAALGCLVKDYFPEPVTVSWNSGALTSGVHTFPAVLQSSGLYSLSSVVTVPSSSLGTQTYICNVNHKPSNTKVDKKVEPKSCDKTHTCPPCPAPELLGGPSVFLFPPKPKDTLMISRTPEVTCVVVDVSHEDPEVKFNWYVDGVEVHNAKTKPREEQYNSTYRVVSVLTVLHQDWLNGKEYKCKVSNKALPAPIEKTISKAKQPREPQVYTLPPSRDELTKNQVSLTCLVKGFYPSDIAVEWESNGQPENNYKTTPPVLDSDGSFFLYSKLTVDKSRWQQGNVFSCSVMHEALHNHYTQKSLSLSPGK
light: EIVLTQSPGTLSLSPGERATLSCRASQSVSSSYLAWYQQKPGQAPRLLIYGASSRATGIPGRFSGSGSGTDFTLTISRLEPEDFAIYYCQQGVTFGGGTKVEIKRTVAAPSVFIFPPSDEQLKSGTASVVCLLNNFYPREAKVQWKVDNALQSGNSQESVTEQDSKDSTYSLSSTLTLSKADYEKHKVYACEVTHQGLSSPVTKSFNRGEC
% inhibition (competition) [1]: 74
Kd [2]: < 100 pM
AUC (RBD bind.) [3]: 13
AUC (RBD block.) [4]: 183
ELISA OD [5]: 0.1 OD
ELISA OD [6]: 0.1 OD
ELISA OD [7]: 3.6 OD
% inhibition (competition) [8]: 65
log10 ΔgMFI [9]: 4.4
Kd [10]: < 1 pM
% inhibition (competition) [11]: 56
% binding inhibition [12]: 96%
% inhibition (competition) [13]: 72
S-Flow (%) [14]: 94%
S-Flow (MFI) [14]: 260000 MFI
log10 ΔgMFI [15]: 4
OD405nm [16]: 3.4
% inhibition (competition) [17]: 70
Kd [18]: 6.27 pM
koff [18]: 3.06e-06 s⁻¹
kon [18]: 487000 M⁻¹ s⁻¹
AUC [19]: 3
AUC (RBD block.) [20]: 365
IC50 [21]: 0.099 µg/mL
IC90 [21]: 0.185 µg/mL
AUC (RBD bind.) [22]: 12
